Assay results: PMC3839849 (2013)

Molecular target: CaV1.2 IQ domain (Homo sapiens, UniProt Q13936, Ca2+)
Assay: ITC

Chain of CaV1.2 IQ domain (Q13936 1665-1685): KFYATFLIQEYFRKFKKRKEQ

B1: CaBP1 C-lobe (protein)
chain: ADMIGVKELRDAFREFDTNGDGEISTSELREAMRKLLGHQVGHRDIEEIIRDVDLNGDGRVDFEEFVRMMSR
In the case of B1, the Kd is reported as 10.5 nM.
